Measured values published in article PMC7181697.

Legend:
REV7^K129A (human) = REV7^K129A (human) (UniProt Q9UI95); assay: ITC; in the context of MBP-SHLD2(1-60) (Supplementary Fig. 5a, b)
MBP-SHLD2(1–60) (human) = MBP-SHLD2(1–60) (human) (UniProt Q86V20); assay: ITC; ITC200, 25 °C, 20 mM Tris pH 8.0, 150 mM NaCl, 1% glycerol, 1 mM TCEP; one set of sites model
Sequence of MBP-SHLD2(1–60) (human) (Q86V20 1-60): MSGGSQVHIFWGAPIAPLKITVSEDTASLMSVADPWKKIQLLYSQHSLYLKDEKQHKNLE

Sequence of REV7^K129A (human) (Q9UI95 whole entry K129A): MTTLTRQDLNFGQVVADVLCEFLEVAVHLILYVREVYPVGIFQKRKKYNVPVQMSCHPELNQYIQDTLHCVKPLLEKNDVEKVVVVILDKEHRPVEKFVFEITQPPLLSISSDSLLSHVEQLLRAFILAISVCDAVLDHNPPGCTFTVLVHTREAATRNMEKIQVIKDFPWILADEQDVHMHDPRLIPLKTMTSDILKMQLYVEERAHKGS

Kd (REV7^K129A (human)) [nM] | Kd (MBP-SHLD2(1–60) (human)) [nM] | Substance
410 | – | REV7^K129A-SHLD3(1–82) (from UniProt Q9UI95 1-211; Q6ZNX1 1-82) (complex)
– | 59 | REV7^W171A-SHLD3(1–82) (from UniProt Q9UI95 1-211; Q6ZNX1 1-82) (complex)
– | 600 | REV7^Y63A-SHLD3(1–82) (from UniProt Q9UI95 1-211; Q6ZNX1 1-82) (complex)
